Laboratory results reported in patent publication US20110212843.

Assays:
[1] = biological target: NF-kB p50 homodimer (UniProt P19838); details: also captured on SELDI array; lost on more stringent wash
[2] = biological target: NF-kB p65 (Rel A) homodimer (UniProt Q04206); details: 1:1 stoichiometry
Sequence of NF-kB p65 (Rel A) homodimer (Q04206 whole entry): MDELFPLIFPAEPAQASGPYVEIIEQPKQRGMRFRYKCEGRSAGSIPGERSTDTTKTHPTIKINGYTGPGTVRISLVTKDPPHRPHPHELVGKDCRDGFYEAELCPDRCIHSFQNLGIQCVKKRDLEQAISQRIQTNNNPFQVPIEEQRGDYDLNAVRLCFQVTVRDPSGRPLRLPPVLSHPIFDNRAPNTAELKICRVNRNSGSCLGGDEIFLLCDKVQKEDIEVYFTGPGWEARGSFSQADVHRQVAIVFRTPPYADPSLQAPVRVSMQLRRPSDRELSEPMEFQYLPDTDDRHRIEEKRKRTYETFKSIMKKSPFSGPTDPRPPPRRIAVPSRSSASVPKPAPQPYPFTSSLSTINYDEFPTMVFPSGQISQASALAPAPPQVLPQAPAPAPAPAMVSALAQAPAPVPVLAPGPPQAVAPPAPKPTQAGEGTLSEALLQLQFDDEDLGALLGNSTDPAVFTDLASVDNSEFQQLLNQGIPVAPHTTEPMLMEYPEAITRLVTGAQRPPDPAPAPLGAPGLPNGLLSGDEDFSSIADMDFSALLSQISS

Sequence of NF-kB p50 homodimer (P19838 1-433): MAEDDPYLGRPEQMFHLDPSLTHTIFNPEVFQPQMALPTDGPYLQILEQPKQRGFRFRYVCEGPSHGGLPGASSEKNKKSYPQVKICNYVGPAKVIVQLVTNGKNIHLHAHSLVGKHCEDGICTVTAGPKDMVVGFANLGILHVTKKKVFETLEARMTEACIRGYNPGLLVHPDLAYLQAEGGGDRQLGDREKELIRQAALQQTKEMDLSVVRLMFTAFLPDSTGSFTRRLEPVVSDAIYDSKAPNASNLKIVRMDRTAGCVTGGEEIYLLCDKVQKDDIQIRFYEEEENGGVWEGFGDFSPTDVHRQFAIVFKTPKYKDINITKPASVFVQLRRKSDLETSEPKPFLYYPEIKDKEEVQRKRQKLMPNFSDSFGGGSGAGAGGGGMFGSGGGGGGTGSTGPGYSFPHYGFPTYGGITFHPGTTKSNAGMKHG

In the case of “IgkB 22-mer duplex (NF-kB promoter element)”, the Kd [1] is reported as 4 nM and the Kd [2] is reported as 4 nM.
